This series deals with the molecule itself. Put plainly: native gel or EMSA; native 8% PAGE of the unlinked enzyme (20 ug), 0.75 M Tris pH 8.8, 4 °C, 90 V for 3 h, Western blot (anti-His, anti-mt-TyrRS).

Changes are numbered by the printed parent chain. Names and notes keep the numbering of the source.

B1: human mitochondrial tyrosyl-tRNA synthetase (mt-TyrRS), WT/WT unlinked homodimer (enzyme, UniProt Q9Y2Z4 17-477, looked up)
chain: TLNLSVLLPLGLRKAHSGAQGLLAAQKARGLFKDFFPETGTKIELPELFDRGTASFPQTIYCGFDPTADSLHVGHLLALLGLFHLQRAGHNVIALVGGATARLGDPSGRTKEREALETERVRANARALRLGLEALAANHQQLFTDGRSWGSFTVLDNSAWYQKQHLVDFLAAVGGHFRMGTLLSRQSVQLRLKSPEGMSLAEFFYQVLQAYDFYYLFQRYGCRVQLGGSDQLGNIMSGYEFINKLTGEDVFGITVPLITSTTGAKLGKSAGNAVWLNRDKTSPFELYQFFVRQPDDSVERYLKLFTFLPLPEIDHIMQLHVKEPERRGPQKRLAAEVTKLVHGREGLDSAKRCTQALYHSSIDALEVMSDQELKELFKEAPFSEFFLDPGTSVLDTCRKANAIPDGPRGYRMITEGGVSINHQQVTNPESVLIVGQHILKNGLSLLKIGKRNFYIIKWLQL
notes: Construct provided by R. Giege; also called YARS2 enzyme; not shown: His-tag, C-terminal, kept
For B1, the binding result is “binds”.

B2: human mitochondrial tyrosyl-tRNA synthetase F185L, F185L/F185L unlinked homodimer (enzyme, UniProt Q9Y2Z4 17-477, looked up)
chain: B1 chain with F169L
notes: Paternally inherited variant of the patient; also called p.F185L; not shown: His-tag, C-terminal, kept
Take B2: the binding result is “binds”.
